Laboratory results taken from patent US20050154189A1 (MAXYGEN, published 2005).

Target: T1, Soluble CTLA-4-Ig (human, UniProt P16410 36-161, FITC-conjugated in the two-colour FACS assays; unlabelled and detected with FITC goat anti-human IgG in the concentration-dependent assay)
T1 construct: extracellular domain; Bought from R&D Systems; also called sCTLA-4-Ig; CTLA-4-Ig Fc; not shown: Fc portion of human IgG1
Test: two-colour FACS profile on transfected cells; score of preference for CTLA-4-Ig over CD28-Ig vs WT hB7-1

T1 sequence (P16410 36-161): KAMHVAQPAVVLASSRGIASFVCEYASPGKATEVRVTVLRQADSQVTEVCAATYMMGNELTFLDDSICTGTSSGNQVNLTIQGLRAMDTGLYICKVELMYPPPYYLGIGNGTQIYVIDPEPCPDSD

| Binder | Binding Score |
| --- | --- |
| Round 2 CTLA4BP 2x4-h11 (ligand) VIHVTKEVKEVATLSCGHNVSVEELAQTRIYWQKEKKMVLTMMSGDMNIWPEYKNRTIFDITNNLSIVILALRPSDEGTYECVVLEYEKDAFKREHLAEVMLSVKADFPTPSISDFEIPPSNIRRIICSTSGGFPEPHLSWLENGEELNAINTTVSQDPGTELYAVSSKLDFNMTTNHSFMCLIKYGHLRVNQTFNWNTPKQEHFPDNLLPSWAITLISVNGIFVICCLAYCFAPRCRGRRRNERLRRESVRPV | 0 |
| Round 2 CTLA4BP 5x2-h11 (ligand) VIHVTKKVKEVATLSCGHNVSVEELAQTRIYWQKGKKMVLTMMSGDMNIWPECKNRTIFDITNNLSIVILALRPSDEGTYECAVLKYEKDAFKREHLAEVTLSVKADFPTPSISDFEIPTSNIRRIICSTSGGFPEPHLFWLENGEELNAINTTASQDPETELYAVSSKLDFNMTTNHSFMCLIKYGHLRVNQTFNWNTPKQEHFPDNLLPSWAITLISVNGIFVICCLTYCFAPRCRERKSNERLRRESVRPV | 1 |
| Round 2 CTLA4BP 5x4-a1 (ligand) VIHVTKEVKEVATLSCGHNVSVEELAQTRIYWQKEKKMVLTMMSGDMNIWPEHKNRTIFDITNNLSIVILALRPSDEGTYECVVLKYEKDAFKREHLAEVTLSVKADFPTPSITDFEIPTSNIRRIICSTSGGFPEPHLSWLENGEELNAINTTVSQDPGTELYTVSSKLDFNMTTNRSFVCLIKYGHLRVNQTFNWNTPKQEHFPDNLLPSWAITLISVNGIFVICCLTYCFAPRCRERRRNERLRRESVRPV | 0 |
| Round 2 CTLA4BP 5x1-f1 (ligand) VIHVTKEVKEVATLSCGLNVSVEELAQTRIYWQKEKKMVLTMMSGDMNIWPEHKNRTIFDITNNLSIVILALRPSDEGTYECVVLKYEKDAFKREHLAEVTLSVKADFPTPSITDFEIPPSNIRRIICSTSGGFPEPHLFWLENGEELNAINTTASQDPETELYTVSSKLDFNMTANHSFVCLIKYGHLRVNQTFNWNTPKQEHFPDNLLPSWAITLISVNGIFVICCLTYCFAPRCRERRRNETLRRESVRPV | 1 |
| Round 2 CTLA4BP-5X2-12F (ligand) VIHVTKEVKEVATLSCGHNVSVEELAQTRIHWQKEKKMVLTMMSGDMNIWPEYKNRTIFDITNNLSIVILALRPSDEGTYECVVLKYEKDAFKREHLAEVTLSVKADFPTPSITDFEIPPSNIKRIICSTSGGFPEPHLSWLENGEELNAINTTVSQDPETELYTVSSKLDFNMTTNHSFMCLIKYGHLRVNQTFNWNTPKQEHFPDNPLPSWAITLISANGIFVICCLTYCFAPRCRERRRNETLRRESVRPV | 1 |
| Round 2 CTLA4BP 5x2-e12 (ligand) VIHVTKEVKEVATLSCGHNVSVEELAQTRIHWQKEKKMVLTMMSGGMNIWPEYKNRTIFDITNNLSIVILALRPSDEGTYECVVLKYEKDAFKREHLAEVTLSVKADFPTPSISDFEIPTSNIRRIICSTSGGFPEPHLSWLENGEELNAISTTVSQDPGTELYAVSSKLDFNMTTNRSFVCLIKYGHLRVNQTFNWNTTKQEHFPDNLLPSWAITLISVNGIFVICCLTYCFAPRCRERRRNERLRRESVRPV | 0 |
| Round 2 CTLA4BP 5x6-f6 (ligand) VIHVTKEVKEVATLSCGHNVSVEELAQTPIYWQKEKKMVLTMMSGDMNIWPEYKNRTIFDITNNLSIVILALRPSDEGTYECVVLKYEKDAFKREHLAEVMLSVKADFPTPSITDFEIPPSNIRRIICSTSGGFPEPHLFWLENGEELNAINTTVSQDPETELYTVSSKLDFNMTTNRSFVCLIKYGHLRVNQTFNWNTPKQEHFPDNLLPSWAITLISANGIFVICCLTYRFAPRCRERRRNERLRRESVCPV | 1 |
| Round 2 CTLA4BP 5x2-f3 (ligand) VIHVTKEVKEVATLSCGHNVSVEELAQTRIYWQKEKKMVLTMMPGDMNIWPEYKNRTIFDITNNLSIVILALRPSDEGTYECVVLRYEKDAFKREHLAEVTLSVKADFPTPSISDFEIPTSNIRRIICSTSGGFPEPHLSWLENGEELNAINTTASQDPETELYTVSSKLDFNMTTNRSFVCLIKYGHLRVNQTFNWNTPKQEHFPDNLLPSWAITLISANGIFVICCLTHCFAPRCRERKSNERLRRESVRPV | 0 |
| Round 2 CTLA4BP 5x5-c10 (ligand) VIHVTKEVKEVATLSCGHNVSVEELAQTRIYWQKEKKMVLTMMSGDMNIWPEYKNRTIFDITNNLSIVILALRPSDEGTYECVVLEYEKDAFKREHLAEVTLSVKADFPTPSITDFEIPPSNIRRIICSTSGGFPEPHLFWLENGEELNAISTTVSQDPETELYAVSSKLDFNMTTNHSFMCLIKYGHLRVNQTFNWNTTKQEHFPDNLLPSWAITLISVNGIFVICCLTYCFAPRCRERRRNERLRRESVHPV | 1 |
| Round 2 CTLA4BP 5x4-h1 (ligand) VIHVTKEVKEVATLSCGHNVSVEELAQTRIHWQKEKKMVLTMMSGDMNIWPEYKNRTIFDITNNLSIVILALRPSDEGTYECVVLKYEKDAFKRKHLAEVMLSVKADFPTPSISDFEIPTSNIRRIICSTSGGFPEPHLFWLENGEELNAINTTASQDPETELYTVSSKLDFNMTTNRSFVCLIKYGHLRVNQTFNWNTPKQEHFPNNLLPSWAITLISVNGIFVICCLTYCFAPRCRERRRNETLRRESVHPV | 2 |
| Round 2 CTLA4BP-5x2-2g (ligand) VIHVTKEVKEVATLSCGHNVSVEELAQTRIHWQKEKKMVLTMMSGDMNIWPEYKNRTIFDITNNLSIVILALRPSDEGTYECVVLKYEKDAFKREHLAEVMLSVKADFPTPSITDFEIPTSNIRRIICSTSGGFPEPHLSWLENGEELNAINTTVSQDPETELYTVSSKLDFNMTTNHSFMCLIKYGHLRVNQTFNWNTPKQEHFPDNLLPSWAITLISVNGIFVICCLTYRFAPRCRERKSNERLRRESVRPV | 2 |
| Round 2 CTLA4BP-5x2-3c (ligand) VIHVTREVKEVATLSCGHNVSVEELAQTRIHWQKEKKMVLTMMSGDMNIWPEYKNRTIFDITNNLSIVILALRPSDEGTYECVVLKYEKDAFKREHLAEVMLSVKADFPTPSISDFEIPTSNIRRIICSTSGGFPEPHLSWLENGEELNAINTTVSQDPETGLYTVSSKLDFNMTTNHSFMCLIKYGHLRVNQTFNWNTPKQEHFPDNLLPSWAITLISVNGIFVICCLTYCFAPRCRERRRNERLRRESVCPV | 2 |
| Round 2 CTLA4BP 5x3-c4 (ligand) VIHVTKEVKEVATLSCGHNVSVEELAQTRIYWQKEKKMVLTMMSGDMNIWPEYKNRTIFDITNNLSIVILALRPSDEGTYECVVLKYEKDAFKREHLAEVTLSVKADFPTPSISDFEIPPSNIRRIICSTSGGFPEPRLAWMEDGEELNAINTTASQDPETELYTVSSKLDFNMTTNRSFVCLIKYGHLRVNQTFNWNTPKQEHFPDNLFPSWAITLISVNGIFVICCLTYCFAPRCRERRRNERLRRESVRPV | 1 |
| Round 2 CTLA4BP 5x3-c3 (ligand) VIHMTKEVKEVATLSCGPNVSVEELAQTRIYWQKEKKMVLTMMSGDMNIWPEYKNRTIFDITNNLSIVILALRPSDEGTYECVVLKYEKDAFKREHLAEVTLSVKADFPTPSISDFEIPTSNIRRIICSTSGGFPEPHLSWLENGEELNAINTTVSQDPGTELYTVSSKLDFNMTTNHSFMCLIKYGHLRVNQTFNWNTPKQEHFPDNLLPSWAITLISVNGIFVICCLTHCFAPRCRERRRNERLRRESVCPV | 1 |
| Round 2 CTLA4BP 5x5-h12 (ligand) VIHVTKKVKEVATLSCGHNVSVEELAQTRIHWQKEKKMVLTMMSGDMNIWPEYKNRTIFDITNNLSIVILALRPSDEGTYECVVLKYEKDAFKREHLAEVMLSVKADFPTPSISDFEIPPSNIRRIICSTSGGFPEPHLSWLENGEELNAINTTVSQDPGTELYTVSSKLDFNMTTDRSFVCLIKYGHLRVNQTFNWNTPKQEHFPDNLLPSWAITLISVNGIFVICCLTYCFAPRCRERRRNGRLRRESVRPV | 1 |
| Round 2 CTLA4BP 5x1-d7 (ligand) VIHVTKEVKEVATLSCGHNVPVEELAQTRIYWQKEKKMVLTMMSGDMNIWPEYKNRTIFDITNNLSIVILALRPSDEGTYGCVVLEYEKDAFKREHLAEVMLSVKADFPTPSITDLEIPPSNIRRIICSTSGGFPEPHLFWLENGEELNAINTTASQDPETELYAVSSKLDFNMTTNHSFMCLIKYGHLRVNQTFNWNTPKQEHFPDNLLPSWAITLISANGIFVICCLTYCFAPRCRERRRNERLRRESVHPV | 1 |
| Round 2 CTLA4BP 5x2-d7 (ligand) VIHMTKEVKEVATLSCGLNVSVEELAQTRIHWQKEKKMVLTMMSGDMNIWPEYKNRTIFDITNNLSIVILALRPSDEGTYECVVLKYEKDAFKREHLAEVMLSVKADFPTPSISDFEIPPSNIRRIICSTSGGFPEPHLSWLENGEELNAINTTVSQDPETGLYTVSSKLDFNMTTNHSFMCLIKYGHLRVNQTFNWNTPKQEHFPDNLLPSWAITLISVNGIFVICCLTYCFAPRCRERRRNERLRRESVRPV | 1 |
| Round 2 CTLA4BP 5x9-d10 (ligand) VIHVTKEVKEVATLSCGLNVSVEELAQTRIYWQKGKKMVLTMMSGDMNIWPEYKNRTIFDITNNLSIVILALRPSDEGTYECVVLEYEKDAFKREHLAEVMLSVKADFPTPSISDFEIPPSNIRRIICSTSGGFPEPHLSWLENGEELNAINTTASQDPGTELYTVSSKLDFNMTTNHSFMCLIKYGHLRVNQTFNWNTPKQEHFPDNLLPSWAITLISVNGIFVICCLTHCFAPRCRERRRNERLRRESARPV | 1 |
| Round 2 CTLA4BP 5x2-b7 (ligand) VIHVTKEVKEVATLSCGHNVSVEELAQTRIHWQKEKKMVLTMMSGDMNIWPEYKNRTIFDITNNLSIVILALRPSDEGTYECVVLKYEKDAFKREHLAEVTLSVKADFPTPSITDFEIPPSNIRRIICSTSGGFPEPHLSWLENGEELNAINTTVSQDPGTELYTVSSKLDFNMTANHSFVCLIKYGHLRVNQTFNWNTPKQEHFPDNLLPSWAITLISANGIFVICCLTYCFAPRCRERRRNERLRRESVRPV | 1 |
| Round 2 CTLA4BP 5x3-e8 (ligand) VIHVTKEVKEVATLSCGHNVSVEELAQTRIYWQKEKKMVLTMMSGDMNIWPEYKNRTIFDITNNLSIVILALRPSDEGTYECVVLEYEKDAFKREHLAEVTLSVKADFPTPSISDFEIPTSNIRRIICSTSGGFPEPHLFWLENGEELNAINTTVSQDPETELYTVSSKLDFNMTANHSFVCLIKYGHLRVNQTFNWNTPKQEHFPDNLLPSWAITLISVNGIFVICCLTYCFAPGCRERRRNERLRRESVCPV | 1 |
